In patent US20170080108A1 (DNARX, published 2017):

B1: recombinant Rituximab protein (antibody, V domains shown)
VH: QVQLQQPGAELVKPGASVKMSCKASGYTFTSYNMHWVKQTPGRGLEWIGAIYPGNGDTSYNQKFKGKATLTADKSSSTAYMQLSSLTSEDSAVYYCARSTYYGGDWYFNVWGAGTTVTVSA
VL: QIVLSQSPAILSASPGEKVTMTCRASSSVSYIHWFQQKPGSSPKPWIYATSNLASGVPVRFSGSGSGTSYSLTISRVEAEDAATYYCQQWTSNPPTFGGGTKLEIK

Legend:
[1] = target: CD20 on human Raji B cells (human) (UniProt P11836); test: flow cytometry on Raji cells, anti-human IgG-PE detection
[2] = target: T1, CD20 on human Raji B cells (human, UniProt P11836 1-297); test: as above
T1 construct: whole, on cells; The target is presented on Raji cells; also called CD20+ human B lymphoma (Raji) cells; CD-20+ human Raji B cells
T1 sequence (looked up): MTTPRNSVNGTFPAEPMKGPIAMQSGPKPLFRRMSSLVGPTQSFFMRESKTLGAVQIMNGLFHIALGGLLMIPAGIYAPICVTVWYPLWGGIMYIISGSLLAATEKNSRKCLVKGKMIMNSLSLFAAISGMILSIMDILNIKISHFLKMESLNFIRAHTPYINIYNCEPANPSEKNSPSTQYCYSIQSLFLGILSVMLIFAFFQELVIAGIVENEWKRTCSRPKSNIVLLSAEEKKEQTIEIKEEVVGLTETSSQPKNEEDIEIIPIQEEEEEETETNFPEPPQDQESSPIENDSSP

Molecule | Mean Fluorescence Intensity [1] | fluorescence intensity, fold over background [1] [fold] | fluorescence intensity, fold over background [2] [fold]
Rituximab present in mouse serum after injection of a dual cassette, single plasmid Rituximab DNA vector (antibody) | 3530 | > 10 | –
B1 | – | – | > 10
